Source: patent publication US20260209321A1 (SINGAPORE HEALTH SERVICES PTE, published 2026)

Experiments:
Peptide-biotin [1] = molecular target: T1, Peptide-biotin; assay: SPR Biacore 8K, purified IgG Fc-captured, Peptide-biotin analyte, 1:1 fit
T1 construct: also called antigen
Method: The affinity of purified antibody binding to Peptide-biotin was individually determined using a Surface Plasmon Resonance (SPR) biosensor, Biacore 8K (GE Healthcare). Antibodies were captured on the sensor chip through Fc capture method. Peptide-biotin was used as the analyte. The data of dissociation (kd) and association (ka) rate constants were obtained using Biacore 8K evaluation software. The equilibrium dissociation constants (KD) were calculated from the ratio of kd over ka.

[2] = molecular target: human TRPM4 expressed in transfected HEK 293 cells (human, UniProt Q8TD43 1-1214); assay: cell-based or functional assay
Chain of human TRPM4 expressed in transfected HEK 293 cells (Q8TD43 whole entry): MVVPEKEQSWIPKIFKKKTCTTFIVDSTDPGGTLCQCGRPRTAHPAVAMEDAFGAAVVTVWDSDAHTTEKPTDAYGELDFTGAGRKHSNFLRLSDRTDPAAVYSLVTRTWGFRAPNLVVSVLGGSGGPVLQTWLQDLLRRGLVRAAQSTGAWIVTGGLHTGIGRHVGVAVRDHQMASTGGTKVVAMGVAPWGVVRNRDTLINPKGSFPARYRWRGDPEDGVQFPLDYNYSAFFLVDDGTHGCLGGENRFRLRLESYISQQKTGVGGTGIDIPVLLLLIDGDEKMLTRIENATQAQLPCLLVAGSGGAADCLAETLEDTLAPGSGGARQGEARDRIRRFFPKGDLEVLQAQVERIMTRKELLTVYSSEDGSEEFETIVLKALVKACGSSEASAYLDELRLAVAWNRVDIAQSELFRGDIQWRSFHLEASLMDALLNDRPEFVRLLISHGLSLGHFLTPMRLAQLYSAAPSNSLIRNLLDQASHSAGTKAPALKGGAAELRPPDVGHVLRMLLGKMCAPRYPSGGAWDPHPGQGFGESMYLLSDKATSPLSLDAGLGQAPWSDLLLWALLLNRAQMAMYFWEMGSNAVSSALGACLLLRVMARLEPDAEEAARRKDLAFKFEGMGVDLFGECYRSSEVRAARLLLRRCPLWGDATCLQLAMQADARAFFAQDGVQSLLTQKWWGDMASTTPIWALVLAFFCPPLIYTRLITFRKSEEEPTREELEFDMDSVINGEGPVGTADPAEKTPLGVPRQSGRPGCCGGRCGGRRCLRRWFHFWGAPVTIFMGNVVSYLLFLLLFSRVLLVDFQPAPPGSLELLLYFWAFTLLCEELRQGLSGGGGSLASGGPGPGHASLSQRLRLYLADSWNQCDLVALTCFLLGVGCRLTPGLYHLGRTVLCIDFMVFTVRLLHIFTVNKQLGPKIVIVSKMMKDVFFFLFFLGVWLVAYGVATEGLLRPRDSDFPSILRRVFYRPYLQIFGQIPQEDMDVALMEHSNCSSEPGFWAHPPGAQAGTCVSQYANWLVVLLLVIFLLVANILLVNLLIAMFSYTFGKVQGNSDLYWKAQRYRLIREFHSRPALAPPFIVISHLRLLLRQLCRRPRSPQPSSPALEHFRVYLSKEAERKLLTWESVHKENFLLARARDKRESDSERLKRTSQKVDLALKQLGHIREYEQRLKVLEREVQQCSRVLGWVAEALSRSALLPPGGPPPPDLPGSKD

Peptide-biotin [3] = molecular target: T1, Peptide-biotin; assay: SPR Biacore 8K affinity ranking; antibody Fc-captured, Peptide-biotin analyte, 1:1 fit
Method: For affinity ranking, antibodies were captured on the sensor chip through Fc capture method. Peptide-biotin was used as the analyte. The surface was regenerated before the injection of another antibody. The process was repeated until all antibodies are analyzed. The off-rates of antibodies were obtained from fitting the experimental data locally to 1:1 interaction model using the Biacore 8K evaluation software. The antibodies were ranked by their dissociation rate constants (off-rates, kd). Based on the ranking result, the top 3 clones were selected.
Humanized antibodies were generated by replacing the framework regions (FRs) from mouse M4M antibody with counterparts from human, while maintaining the antibody's complementarity-determining regions (CDRs) binding regions. The antibody binding affinity of the chimeric and humanized antibodies was assessed by surface plasmon resonance (SPR) as shown in Table 1. Antibody clone A1 is the chimeric antibody and antibody clones A2-7 are humanized antibodies. Based on the results obtained from SPR, humanized clone A2 has the strongest SPR signal. For affinity ranking, antibodies were captured on the sensor chip through Fc capture method. Peptide-biotin was used as the analyte. The surface was regenerated before the injection of another antibody. The process was repeated until all antibodies are analyzed. The off-rates of antibodies were obtained from fitting the experimental data locally to 1:1 interaction model using the Biacore 8K evaluation software. The antibodies were ranked by their dissociation rate constants (off-rates, kd). Based on the ranking result, the top humanized clones were selected. […] Bolded and underlined amino acids correspond to the back mutation sites in the framework regions.

- Kd (Peptide-biotin [1]): 3.16 nM
- koff (Peptide-biotin [1]): 0.000605 s⁻¹
- kon (Peptide-biotin [1]): 191000 M⁻¹ s⁻¹
- Kd (Peptide-biotin [3]): 6.66 nM
- koff (Peptide-biotin [3]): 0.00166 s⁻¹
- kon (Peptide-biotin [3]): 249000 M⁻¹ s⁻¹
B1: humanized anti-TRPM4 antibody clone A2 (VH1 + VL1) (antibody, human IgG1, kappa, V domains shown)
VH: QVQLQESGPGLVKPSQTLSLTCTVSGYSITSDYAWNWIRQHPGKGLEWIGYLSYSGVTSYNPSLKGRVTISVDTSKNQFSLKLSSVTAADTAVYYCARKGTYYRYEGSYWYFDVWGQGTTVTVSS
VL: DIQMTQSPSSLSASVGDRVTITCHANQNIDVWLSWYQQKPGKAPKLLIYKTSNLHTGVPSRFSGSGSGTDFTFTISSLQPEDIATYYCQQGQSYPLTFGGGTKLEIKR
notes: also called VH1 + VL1 (A2)
- IC50 of dose-dependent inhibition of hypoxia-induced TRPM4 current increase (whole-cell patch clamp) [2]: 1.23 µg/mL
